{"source": "the DeepSol protein solubility set", "data": [{"assay": "soluble on expression in E. coli; label from the status in PepcDB or PDB records", "values": [{"sequence": "MVMATRVKNVGNWRIMPDATLAASYQAYKRCQNRRPDKAFTPHPAISAPMPDATLAASYQACKMCQNRVGRIRRSRRIRQLEHHHHHH", "soluble on expression in E. coli": "not soluble"}, {"sequence": "MLQALLDSKDFLALTLANPQTLGDEFSFTLGEHTRVNVWDTGVIVFEPAQPQGKDVILSCGVHGNETAPIELCNTLIKQLLQQKIIAKQRTLFLIGNPLAINNGTRIIDENMNRLFSGEHSNPPGLVNPERLRAKKLETYVDRFFKAAAAGRQRIHYDLHTAMRASKHEKFAIYPYRPGRAYSAEQIMFLAASGVDTVLFHHEPTTTFSYFSSEQYGADAFTIELGKVYPMGQNDMTRFIAAQEMFTRLITDKPLQLESFSTDKVNLYQVCRVINKHFDDFEFTFATDVENFRAFPKGFVLAREGGQEIKVEQEVESIVFPNAKVPIGNRTVICLIPSVAPDVRLEHHHHHH", "soluble on expression in E. coli": "soluble"}, {"sequence": "MSLTIKLITFDLDDTLWDTAPVIVSAEATLRQWLTEHAPNLGGVPVEHLWAIRERVLLAQPNLKHRISALRRQVLFHALEEAGYDHAQANQLADQSFEVFLHARHQLEIFPEVQPTLEALANHFALGVVTNGNADVRRLGLADYFKFALCAEDIGIAKPDARLFHEALQRGEATADTAVHIGDHPGDDIAGAQQAGLRAIWFNPNGKTWEAEHAPDAEIRSLNELPGLLARWHRGAEGHHHHHH", "soluble on expression in E. coli": "soluble"}, {"sequence": "MSQDLQKEVASRKTFAIISHPDAGKTTITEQLLLFGGVIRSAGTVKGKKSGKFATSDWMEIEKQRGISVTSSVMQFDYNGSRINILDTPGHSDFSEDTYRTLMAVDSAVMVIDAAKGIEAQTLKLFKVCRMRGIPIFTFINKMDRQGKMPLELLAELEEVLGIESYPMNWPIGMGKELAGLYDRYHRVIEQYRSEEDERFLPLGEDGDLKEAHAIQKSLYYDQALEEIMLLDEAGNDFSRERIIAGEQTPVFFGSALTNFGVETFLRTFVDFAPAPSSHESNEGVIEADNPKFSGFIFKIQANMNPAHRDRIAFIRICSGEFERGMNVTLTRTGKSLKLANSTQFMADDRETVNRAVAGDIIGLYDTGNYQIGDTITNGSKKLEFEKLPQFTPELFMRVYAKNVMKQKHFHKGVEQLVQEGAIQLFKTWRTEEYIIGAVGQLQFEVFEHRMRGEYNSEIRMEPIGKKIARWVKEEDADEKLSTARSMLVKDRFDQPLFLFENEFAINWFNDKNPDIELTSLL", "soluble on expression in E. coli": "not soluble"}, {"sequence": "SVELSAGQSIIADAAGALGPVNRDDAPAATWREGRVSFSGTPLMQALAEFERYGDTGLVIRDPAVAALKVNGSFDLRQIGAFARALPRVLPVQLSTRDGQTEII", "soluble on expression in E. coli": "not soluble"}, {"sequence": "GPGSMVACTRLRRTQKVAKQKTETASNSHPRTSFLRRGRSTDCDIGALHVAATRVTLSVSHYATLLEGSVICVCFGFRLAAAAATNQLASSRLYRVPFAPLTSGLTNEKVLLRWSVAMSRKDAERKLTEDDCLTSSQQYDPQLIFYVPLRRKGYQAIDASAFVRCGGLRVVDISGNRLSTLSGLESVAPQLTFLNAAENSLHDIGALVTCAALERCMLEGNKLASVDSLQPLVSLPCLAELVLQRHVPLDDAAIGSGSPEQSSDKLLLLDNPVCRDAVAYREHFLAKMSHVRWVDGVSTYLRASSLAESTTTESHDAKENSTKAIVDAAIRSFQSIRVQMTATVSEETTLRHQLERAADRCKPSTVTVAARTP", "soluble on expression in E. coli": "not soluble"}, {"sequence": "MLNRYYRFAVEKDDPSEAPESGDKPDSQPQKKS", "soluble on expression in E. coli": "not soluble"}, {"sequence": "MSLGDAADPREMRKTFIVPAIKPFDHYDFSRAKIACNLAWLVAKAFGTENVPEELQEPFYTDQYDQEHIKPPVVNLLLSAELYCRAGSLILKSDAAKPLLGHDAVIQALAQKGLYVTDQEKLVTERDLHKKPIQMSAHLAMIDTLMMAYTVEMVSIEKVIACAQQYSAFFQATDLPYDIEDAVMYWINKVNEHLKDIMEQEQKLKEHHTVEAPGGQKEGHHHHHH", "soluble on expression in E. coli": "soluble"}, {"sequence": "LDQILRATVEEVRAFLGTDRVKVYRFDPEGHGTVVAEARGGERLPSLLGLTFPAGDIPEEARRLFRLAQVRVIVDVEAQSRSISQPESWGLSARVPLGEPLQRPVDPCHVHYLKSMGVASSLVVPLMHHQELWGLLVSHHAEPRPYSQEELQVVQLLADQVSIAIAQAELSL", "soluble on expression in E. coli": "soluble"}]}]}
